Laboratory results taken from publication doi:10.1101/2021.11.30.470528.

Molecular target: GST affinity tag
Assay: SEC

Sequence of GST affinity tag (P08515 2-218): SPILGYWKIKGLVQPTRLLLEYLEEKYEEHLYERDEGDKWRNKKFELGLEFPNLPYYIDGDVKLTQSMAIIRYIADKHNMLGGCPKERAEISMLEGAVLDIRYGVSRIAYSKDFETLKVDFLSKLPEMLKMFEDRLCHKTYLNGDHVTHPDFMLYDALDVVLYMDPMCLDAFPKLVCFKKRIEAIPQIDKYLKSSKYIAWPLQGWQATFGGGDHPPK

GST affinity tag
stoichiometry N: 2
